The target in this assay is GST-Rac1^QP (UniProt P63000). As to the kind of experiment: pull-down.

Substance “WRC^Y967A (from UniProt Q7L576 1-1253; Q9Y2A7 1-1128; Q92558 1-230; Q9NYB9 1-158; Q8WUW1 1-75) (complex)” returned a Kd of 2000 nM.
